This assay addresses aquaporin-4 (AQP4) M1 isoform, expressed in HEK 293 cells (UniProt P55088-1 1-323). Briefly: co-IP.

Chain of aquaporin-4 (AQP4) M1 isoform, expressed in HEK 293 cells (P55088 whole entry, canonical isoform): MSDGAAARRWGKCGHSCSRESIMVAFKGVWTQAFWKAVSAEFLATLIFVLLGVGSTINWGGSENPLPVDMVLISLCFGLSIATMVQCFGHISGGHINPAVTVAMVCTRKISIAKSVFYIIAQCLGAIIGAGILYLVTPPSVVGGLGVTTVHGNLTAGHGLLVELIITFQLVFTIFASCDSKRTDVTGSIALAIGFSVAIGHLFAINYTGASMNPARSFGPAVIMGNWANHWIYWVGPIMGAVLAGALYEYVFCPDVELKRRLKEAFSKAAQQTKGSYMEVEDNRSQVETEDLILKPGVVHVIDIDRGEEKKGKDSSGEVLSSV

B1: TRPM4, expressed in HEK 293 cells (natural protein)
chain: not shown
As for B1, the “fold TRPM4 co-precipitated with AQP4 in SUR1+ cells against SUR1- cells” value is 4 fold.

The values are drawn from paper PMC5759053 (Glia, 2017).
